Assay [1] addresses T1, mouse CD47 (mCD47) expressed on CHO cells (mouse, UniProt Q61735 19-303).
T1 construct: whole, on cells; also called CHO-mCD47
T1 sequence (looked up): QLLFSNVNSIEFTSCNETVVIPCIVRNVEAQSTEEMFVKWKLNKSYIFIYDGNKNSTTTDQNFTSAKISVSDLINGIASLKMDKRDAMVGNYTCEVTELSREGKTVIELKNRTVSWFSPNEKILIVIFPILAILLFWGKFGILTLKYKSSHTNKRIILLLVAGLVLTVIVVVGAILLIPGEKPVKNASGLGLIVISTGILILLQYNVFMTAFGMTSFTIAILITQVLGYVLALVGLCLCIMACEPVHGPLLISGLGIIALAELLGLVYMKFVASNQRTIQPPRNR
Briefly: flow cytometry, CHO-mCD47 cells. For orientation: In flow cytometry, cells or beads pass a laser one at a time.

Assay [2] has as its target T2, human CD47 (hCD47) expressed on cells (human, UniProt Q08722 19-323).
T2 construct: Transfected CHO cells or endogenous CD47 of human cells; also called CHO-hCD47; CD47 on Raji cells
The assay is described as follows: flow cytometry, hCD47-CHO cells, competition with His-hSIRPα.
Protocol: Human CD47-transfected cells (3×10⁵ cells/well of 96-well plate) were first incubated at +4° C. for 30 minutes with serial dilutions of anti-CD47 antibodies or isotype control antibody (in mIgG2a or mIgG1 format). […] The percentage inhibition was plotted against antibody concentration and the IC50 values were calculated using a nonlinear regression analysis model of the GraphPad Prism software.

Assay [3] addresses T3, hu-sCD47-6His; extracellular domain of human CD47 antigen with 6His-tag (human).
T3 construct: also called hCD47-his; soluble hCD47
Briefly: SPR Biacore T200, antibody captured, hCD47-his analyte.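 Also: antibodies captured on anti-IgG (Fc) CM5 chip, five sequential 10 min antigen injections at rising concentrations, reference flow cell and antigen-free cycle as controls, 1:1 model fit.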

Assay [4] addresses T2, human CD47 (hCD47) expressed on cells. Briefly: cell-based or functional assay.
For assay [5] the target is unchanged. The assay is described as follows: flow cytometry, Raji cells.
For assay [6], the target named is T3, hu-sCD47-6His; extracellular domain of …. The assay is described as follows: ELISA, one-site binding saturation fit, glycosylated hCD47. Background: An ELISA detects its analyte on a solid surface through an enzyme-linked reagent.
Protocol: (§1) The Bmax values were calculated by using the binding saturation/one-site binding model of the GraphPad Prism software (mean +/− SD of triplicates).
The target in assay [7] is T4, N-deglycosylated soluble hCD47-His (PNGase treated) (human, N-glycans removed with PNGase).
T4 construct: also called deglycosylated-hCD47; N-Deglycosylated hCD47-His
The assay is described as follows: ELISA; against glycosylated hCD47-His.
Protocol: (§2) The EC50 and EC95 values were calculated by using the non-linear regression/log (antibody) versus response (four parameters) model of the GraphPad Prism software.

For assay [8], the target named is T2, human CD47 (hCD47) expressed on cells. Briefly: flow cytometry, Raji cells. The source holds these as a separate data set.
Assay [9] has as its target T3, hu-sCD47-6His; extracellular domain of …. Briefly: ELISA, coated glycosylated hCD47-His.
Protocol: as §2
Assay [10] has as its target T4, N-deglycosylated soluble hCD47-His …. Briefly: ELISA, one-site binding saturation fit, deglycosylated hCD47.
Protocol: as §1
Assay [11] addresses T3, hu-sCD47-6His; extracellular domain of …. Briefly: ELISA, one-site binding saturation fit, glycosylated hCD47. The source holds these as a separate data set.
Protocol: (§3) The equilibrium binding constant values were calculated by using the binding saturation/one-site binding model of the GraphPad Prism software (mean +/− SD of triplicates).
The target of assay [12] is T2, human CD47 (hCD47) expressed on cells. Briefly: flow cytometry, Raji cells, competition with hSIRPα.
Assay [13] addresses T3, hu-sCD47-6His; extracellular domain of …. The assay is described as follows: SPR Biacore.
Description: (§4) An anti-human or anti-mouse IgG (Fc) was first immobilized on the surface of Serie S Sensor Chips CM5 using the human or mouse antibody capture and amine coupling kits, following the manufacturer's instructions (GE Healthcare). […] The mouse, chimerized or humanized antibodies to be tested were then captured onto the appropriate anti-mouse or anti-human IgG surface in all flow cells except flow cell 1 used as control, at concentration and contact time adjusted so that ˜300 RU were captured on the surface. Binding kinetics were studied by passing increasing concentrations of hCD47-his in a series of five 10 minute injections through all flow cells at a rate of 30 μL/min. […] Following the final injection, buffer was passed across each flow cell for 60 minutes (mouse) or 30 minutes (human) to monitor the dissociation of bound antigen. Regeneration of the binding surface was carried out at the end of the cycle by flowing 3 M MgCl₂ for 60 s at 20 μL/min followed by 10 mM glycine-HCl, pH 1.7 for 180 s at 10 μl/min (for human) or by flowing 10 mM glycine-HCl, ph 1.7 for 360 s at 10 μl/min (for mouse). A second cycle with the same antibodies but no antigen was run as a control. Kinetics binding constants were estimated by non-linear fitting of the sensogram data to the 1:1 binding model provided by the Biacore T200 evaluation software.
The target of assay [14] is T4, N-deglycosylated soluble hCD47-His …. Briefly: ELISA, one-site binding saturation fit, deglycosylated hCD47. The source holds these as a separate data set.
Protocol: as §3
The target is the same in assay [15]. The assay is described as follows: ELISA, coated N-deglycosylated hCD47-His.
Assay [16] concerns the target T2, human CD47 (hCD47) expressed on cells. Briefly: flow cytometry, Raji cells, competition with His-hSIRPα; lower end tied to candidates 14 and 15 by Table 7.
Protocol: (§5) The percent inhibition was plotted against antibody concentration and the IC50 values were calculated by using a nonlinear regression analysis model of the GraphPad Prism software.
For assay [17] the target is unchanged. Briefly: flow cytometry, Raji cells, competition with His-hSIRPα.
Protocol: as §5
Assay [18] has the same target. Briefly: flow cytometry on Raji cells, hIgG4 format, delta MFI.
Assay [19] shares this target. Briefly: flow cytometry on Raji cells, hIgG4 format: inhibition of hSIRPα binding to hCD47.
The target is the same in assay [20]. Briefly: flow cytometry, Raji cells, competition with hSIRPα. This is another data set of the same source.
In assay [21] the target is T3, hu-sCD47-6His; extracellular domain of …. Briefly: SPR Biacore. The source holds these as a separate data set. For orientation: SPR reads the build-up and loss of mass on a sensor chip optically.
Description: as §4
The target in assay [22] is T2, human CD47 (hCD47) expressed on cells. The assay is described as follows: flow cytometry, Raji cells. This is another data set of the same source.
Assay [23] has the same target. The assay is described as follows: flow cytometry on Raji cells, hIgG4 format, delta MFI. The source holds these as a separate data set.
Assay [24] has the same target. The assay is described as follows: flow cytometry on Raji cells, hIgG4 format: inhibition of hSIRPα binding to hCD47. The source holds these as a separate data set.

Numbering of substitutions follows the chain as printed. Names may count otherwise. Like-named read-outs stand apart in the source and are kept apart here.

B1: Candidate 20 (VL008-AL18-14G4-14K1), mouse IgG (antibody, V domains shown)
VH: QVQLKQSGAELVRPGASVKLSCKASGYSFTDYYINWVKQRPGQGLEWIARIYPGIGNTYYNKKFKGKATLTAEKSSSTAYMQLNSLTSEDSAVYFCARGHYGRGMDYWGQGTSVTVSS
VL: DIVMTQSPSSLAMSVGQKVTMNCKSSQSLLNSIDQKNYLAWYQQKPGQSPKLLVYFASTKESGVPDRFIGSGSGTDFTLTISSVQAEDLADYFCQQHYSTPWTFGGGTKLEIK
notes: Recombinant mouse IgG2a or mIgG1 format, by assay; also called antibody 20
What is called IC50 is the concentration needed to halve the response being measured. By Kd is commonly meant a measure of binding affinity in units of concentration. Higher therefore signals weaker binding. A word on the koff: it is the rate constant with which the complex falls apart. Read a low koff as a long-lived complex. The kon is the second-order rate constant of association. One may read the EC50 as the concentration at which the effect is half-maximal. B1: in assay [1], the binding result was “no binding (tested: 7.3 µg/mL highest concentration)”. Also, the IC50 in assay [2] was determined as 0.44 µg/mL. In [3], binding was characterised by a dissociation constant (Kd) of 4.16 nM, the koff was determined as 0.000418 s⁻¹ and the kon stood at 101000 M⁻¹ s⁻¹. Besides, the “Phagocytic index, Raji cells and human macrophages, antibody at 0.125 µg/mL” value in assay [4] is 119 Raji cells ingested per 100 macrophages. Further, a half-maximal effect in [5] (EC50) was put at 0.096 µg/mL.

B2: hIgG4 chimeric candidate 22 (mouse VH/VL, human Fcγ4-S228P and human Kappa backbone) (antibody, V domains shown)
VH: QVQLQQPGAELVKPGASVKLSCKASGYTFTTYWMHWVKQRPGQGLEWIGMIHPNSGTTNYNEKFKSKATLTVDKSSSSTYMQLSSLTSEDSAVYYCTRSHYYDGHFSYWGQGTLVTVSA
VL: DIVMSQSPSSLAVSAGEKVTMSCKSSQSLLNSRTRKNYLAWYQQKPGQSPKLLIYWASTRESGVPDRFTGSGSGTDFTLTISSVQAEDLAVYYCKQSYNLWTFGGGTRLEIKR
notes: hIgG4-S228P/kappa; also called Chim; 22
For orientation: EC95 means the point of the concentration-response curve where the effect stands at 95%. A lower EC95 goes with an effect from little substance. The molecule B2 showed a Bmax in assay [6] of 2.85 OD value. In addition, in assay [7], the “EC50 ratio Deglycosylated/Glycosylated” value turned out to be 1.1 ratio and the “EC95 ratio Deglycosylated/Glycosylated” value was determined as 1.4 ratio. In assay [8], this molecule displayed an EC50 of 0.122 µg/mL. Also, in assay [9], it took 0.0387 nM to reach a half-maximal effect (EC50) and the EC95 was 4.67 nM. This molecule showed a Bmax2 in assay [10] of 2.57 OD value. The molecule further registered an equilibrium binding constant in assay [11] of 34.4 pM. This molecule returned an IC50 in [12] of 0.14 µg/mL. In assay [13], this molecule yielded a Kd of 12.2 nM, a koff of 0.000381 s⁻¹ and a kon of 31200 M⁻¹ s⁻¹. Also, the equilibrium binding constant in assay [14] stood at 31.8 pM. Besides, in assay [15], a half-maximal effect (EC50) was put at 0.042 nM and it took 6.67 nM to reach the 95% level (EC95).

B3: Candidate 14, chimeric hIgG format (hIgG1 or hIgG4) (antibody, V domains shown)
VH: QVQLQQPGAELVKPGASLRVSCKASGYTFTNYWMYWVRQRPGRGLEWIGWIDPNSGGTKYNEKFKSKATLTVDKPSSTAYMQLSSLTSEDSAVYNCARGGYTMDYWGQGTSVTVSS
VL: DVVMTQTPLSLPVSLGDQASISCRASQSLVHSNGNTYLHWYLQKPGQSPKLLIYKVSNRFSGVPDRFSGSGSGTDFTLKISRVEAEDLGVYFCSQSTHVPLTFGAGTKLELK
notes: also called Candidate 14 (hIgG format)
As to B3, the IC50 amounted to 0.14 nM in [16] and 0.021 µg/mL in assay [17].

B4: Candidate 15, chimeric hIgG format (hIgG1 or hIgG4) (antibody, V domains shown)
VH: QVQLQQPGAELVKPGTSVKLSCKASGYTFINYWIHWVKQRPGRGLEWIGRIDPNTVDAKYNEKFKSKATLTVDKPSSIAYMQLSSLTSEDSAVYYCSRGGYTMDYWGQGTSVTVSS
VL: B3 VL with A25S, K50T, V90I, S94F, L101W, A105G, L111I
notes: also called Candidate 15 (hIgG format)
With B4, the figures for the IC50 in assay [16] and in [17] were 0.14 nM and 0.021 µg/mL, respectively.

B5: h20-H3-L2Y (candidate 20.27), hIgG4-S228P (antibody, V domains shown)
VH: QVQLVQSGAEVKKPGASVKVSCKASGYSFTDYYINWVRQAPGQGLEWMGRIYPGIGNTYYNKKFKGRVTVTRDTSISTAHMELSSLRSDDTAVYYCARGHYGRGMDYWGQGTAVTVSS
VL: DIVMTQSPDSLAVSLGERATINCKSSQSLLNSIDQKNYLAWYQQKPGQPPKLLIYYASTKESGVPDRFSGSGSGTDFTLTISSLQAEDVAVYYCQQHYSTPWTFGGGTKVEIKR
notes: also called H20-VH3-VL2,Y
As a reminder, the EC50 (read off the curve) is the concentration giving half of the maximal effect. Low readings indicate higher potency in that assay, high ones lower potency in that assay. For the molecule B5, in [18], the “EC50 (read off the curve)” value is ~0.1 µg/mL. Further, in assay [19], the “IC50 (read off the curve)” value was ~0.2 µg/mL. Further, the IC50 in assay [20] was 0.101 µg/mL. In assay [21], the Kd was 2.06 nM, the koff is 0.000584 s⁻¹ and the kon was determined as 292000 M⁻¹ s⁻¹. Moreover, the EC50 in assay [22] is 0.0854 µg/mL.

B6: h20-H2-L5Y (candidate 20.26), huIgG4_S228P format (antibody, V domains shown)
VH: B5 VH with V70I, I76A, H80Y, D89E, A113L
VL: B5 VL with S83G, Y93F, K113R
notes: also called H20-VH2-VL5,Y; h2O-H2L5Y
In turn, B6 yielded a Bmax in [6] of 2.85 OD value. Moreover, in assay [7], the “EC50 ratio Deglycosylated/Glycosylated” value is 2.2 ratio and the “EC95 ratio Deglycosylated/Glycosylated” value came out at 8.5 ratio. Besides, the “EC50 (read off the curve)” value in [23] was ~0.1 µg/mL. Further, in assay [9], the EC50 came to 0.044 nM and it took 1.33 nM to reach the 95% level (EC95). Moreover, the IC50 in assay [20] came out at 0.113 µg/mL. Moreover, the “IC50 (read off the curve)” value in assay [24] is ~0.2 µg/mL. Moreover, the Bmax2 in assay [10] is 1.97 OD value. For the same molecule, the equilibrium binding constant in assay [11] came to 43.6 pM. In assay [21], this molecule gave a Kd of 2.32 nM, a koff of 0.000699 s⁻¹ and a kon of 306000 M⁻¹ s⁻¹. For the same molecule, the equilibrium binding constant in assay [14] was found to be 55.7 pM. In assay [15], this molecule had an EC50 of 0.096 nM and an EC95 of 11.3 nM. The molecule also came in with an EC50 in assay [22] of 0.0975 µg/mL.

These data come from patent publication US20220356245A1 (FORTY SEVEN, published 2022).
